The source of these data is patent US20160272683A1 (Novo Nordisk, published 2016).

* marks the point of attachment. C18 diacid = O=C(O)CCCCCCCCCCCCCCCCC(=O)*

To fix the notation:
T1: human calcitonin receptor (human, UniProt P30988 25-474)
T1 construct: whole, on cells; also called hCT-R; hCTR
T1 sequence (looked up): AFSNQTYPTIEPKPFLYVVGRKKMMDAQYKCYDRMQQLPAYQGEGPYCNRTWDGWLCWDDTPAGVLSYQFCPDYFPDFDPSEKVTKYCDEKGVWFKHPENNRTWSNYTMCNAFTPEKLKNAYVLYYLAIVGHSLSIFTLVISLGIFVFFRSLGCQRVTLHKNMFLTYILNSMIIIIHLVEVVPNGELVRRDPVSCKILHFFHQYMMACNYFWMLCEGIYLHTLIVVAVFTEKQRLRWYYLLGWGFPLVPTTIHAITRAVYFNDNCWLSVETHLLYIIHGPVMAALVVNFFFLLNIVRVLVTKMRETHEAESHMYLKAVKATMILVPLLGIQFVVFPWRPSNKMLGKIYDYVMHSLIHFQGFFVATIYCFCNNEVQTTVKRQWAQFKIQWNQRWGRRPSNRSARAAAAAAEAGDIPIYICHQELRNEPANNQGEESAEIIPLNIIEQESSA

B1: [N-terminal(C18 diacid), 9V, 25P]mimylin (peptide)
peptide: {C18 diacid}-EASELSTAVLGRLSAELHELATLPPTETGPESP-NH2
SMILES: CC(C)C[C@H](NC(=O)[C@H](CCC(=O)O)NC(=O)[C@H](Cc1c[nH]cn1)NC(=O)[C@H](CC(C)C)NC(=O)[C@H](CCC(=O)O)NC(=O)[C@H](C)NC(=O)[C@H](CO)NC(=O)[C@H](CC(C)C)NC(=O)[C@H](CCCNC(=N)N)NC(=O)CNC(=O)[C@H](CC(C)C)NC(=O)[C@@H](NC(=O)[C@H](C)NC(=O)[C@@H](NC(=O)[C@H](CO)NC(=O)[C@H](CC(C)C)NC(=O)[C@H](CCC(=O)O)NC(=O)[C@H](CO)NC(=O)[C@H](C)NC(=O)[C@H](CCC(=O)O)NC(=O)CCCCCCCCCCCCCCCCC(=O)O)[C@@H](C)O)C(C)C)C(=O)N[C@@H](C)C(=O)N[C@H](C(=O)N[C@@H](CC(C)C)C(=O)N1CCC[C@H]1C(=O)N1CCC[C@H]1C(=O)N[C@H](C(=O)N[C@@H](CCC(=O)O)C(=O)N[C@H](C(=O)NCC(=O)N1CCC[C@H]1C(=O)N[C@@H](CCC(=O)O)C(=O)N[C@@H](CO)C(=O)N1CCC[C@H]1C(N)=O)[C@@H](C)O)[C@@H](C)O)[C@@H](C)O
notes: also called Ex. #31
B2: [N-terminal(C18 diacid), 9V]mimylin (peptide)
peptide: {C18 diacid}-EASELSTAVLGRLSAELHELATLPRTETGPESP-NH2
SMILES: CC(C)C[C@H](NC(=O)[C@H](CCC(=O)O)NC(=O)[C@H](Cc1c[nH]cn1)NC(=O)[C@H](CC(C)C)NC(=O)[C@H](CCC(=O)O)NC(=O)[C@H](C)NC(=O)[C@H](CO)NC(=O)[C@H](CC(C)C)NC(=O)[C@H](CCCNC(=N)N)NC(=O)CNC(=O)[C@H](CC(C)C)NC(=O)[C@@H](NC(=O)[C@H](C)NC(=O)[C@@H](NC(=O)[C@H](CO)NC(=O)[C@H](CC(C)C)NC(=O)[C@H](CCC(=O)O)NC(=O)[C@H](CO)NC(=O)[C@H](C)NC(=O)[C@H](CCC(=O)O)NC(=O)CCCCCCCCCCCCCCCCC(=O)O)[C@@H](C)O)C(C)C)C(=O)N[C@@H](C)C(=O)N[C@H](C(=O)N[C@@H](CC(C)C)C(=O)N1CCC[C@H]1C(=O)N[C@@H](CCCNC(=N)N)C(=O)N[C@H](C(=O)N[C@@H](CCC(=O)O)C(=O)N[C@H](C(=O)NCC(=O)N1CCC[C@H]1C(=O)N[C@@H](CCC(=O)O)C(=O)N[C@@H](CO)C(=O)N1CCC[C@H]1C(N)=O)[C@@H](C)O)[C@@H](C)O)[C@@H](C)O
notes: also called Ex. #9
B3: [N-terminal(C18 diacid), 20I]mimylin (peptide)
peptide: {C18 diacid}-EASELSTAALGRLSAELHEIATLPRTETGPESP-NH2
SMILES: CC[C@H](C)[C@H](NC(=O)[C@H](CCC(=O)O)NC(=O)[C@H](Cc1c[nH]cn1)NC(=O)[C@H](CC(C)C)NC(=O)[C@H](CCC(=O)O)NC(=O)[C@H](C)NC(=O)[C@H](CO)NC(=O)[C@H](CC(C)C)NC(=O)[C@H](CCCNC(=N)N)NC(=O)CNC(=O)[C@H](CC(C)C)NC(=O)[C@H](C)NC(=O)[C@H](C)NC(=O)[C@@H](NC(=O)[C@H](CO)NC(=O)[C@H](CC(C)C)NC(=O)[C@H](CCC(=O)O)NC(=O)[C@H](CO)NC(=O)[C@H](C)NC(=O)[C@H](CCC(=O)O)NC(=O)CCCCCCCCCCCCCCCCC(=O)O)[C@@H](C)O)C(=O)N[C@@H](C)C(=O)N[C@H](C(=O)N[C@@H](CC(C)C)C(=O)N1CCC[C@H]1C(=O)N[C@@H](CCCNC(=N)N)C(=O)N[C@H](C(=O)N[C@@H](CCC(=O)O)C(=O)N[C@H](C(=O)NCC(=O)N1CCC[C@H]1C(=O)N[C@@H](CCC(=O)O)C(=O)N[C@@H](CO)C(=O)N1CCC[C@H]1C(N)=O)[C@@H](C)O)[C@@H](C)O)[C@@H](C)O
notes: also called Ex. #12
B4: [N-terminal(C18 diacid), 9V, 28P]mimylin (peptide)
peptide: {C18 diacid}-EASELSTAVLGRLSAELHELATLPRTEPGPESP-NH2
SMILES: CC(C)C[C@H](NC(=O)[C@H](CCC(=O)O)NC(=O)[C@H](Cc1c[nH]cn1)NC(=O)[C@H](CC(C)C)NC(=O)[C@H](CCC(=O)O)NC(=O)[C@H](C)NC(=O)[C@H](CO)NC(=O)[C@H](CC(C)C)NC(=O)[C@H](CCCNC(=N)N)NC(=O)CNC(=O)[C@H](CC(C)C)NC(=O)[C@@H](NC(=O)[C@H](C)NC(=O)[C@@H](NC(=O)[C@H](CO)NC(=O)[C@H](CC(C)C)NC(=O)[C@H](CCC(=O)O)NC(=O)[C@H](CO)NC(=O)[C@H](C)NC(=O)[C@H](CCC(=O)O)NC(=O)CCCCCCCCCCCCCCCCC(=O)O)[C@@H](C)O)C(C)C)C(=O)N[C@@H](C)C(=O)N[C@H](C(=O)N[C@@H](CC(C)C)C(=O)N1CCC[C@H]1C(=O)N[C@@H](CCCNC(=N)N)C(=O)N[C@H](C(=O)N[C@@H](CCC(=O)O)C(=O)N1CCC[C@H]1C(=O)NCC(=O)N1CCC[C@H]1C(=O)N[C@@H](CCC(=O)O)C(=O)N[C@@H](CO)C(=O)N1CCC[C@H]1C(N)=O)[C@@H](C)O)[C@@H](C)O
notes: also called Ex. #32
B5: [N-terminal(C18 diacid), 18A]mimylin (peptide)
peptide: {C18 diacid}-EASELSTAALGRLSAELAELATLPRTETGPESP-NH2
SMILES: CC(C)C[C@H](NC(=O)[C@H](C)NC(=O)[C@H](C)NC(=O)[C@@H](NC(=O)[C@H](CO)NC(=O)[C@H](CC(C)C)NC(=O)[C@H](CCC(=O)O)NC(=O)[C@H](CO)NC(=O)[C@H](C)NC(=O)[C@H](CCC(=O)O)NC(=O)CCCCCCCCCCCCCCCCC(=O)O)[C@@H](C)O)C(=O)NCC(=O)N[C@@H](CCCNC(=N)N)C(=O)N[C@@H](CC(C)C)C(=O)N[C@@H](CO)C(=O)N[C@@H](C)C(=O)N[C@@H](CCC(=O)O)C(=O)N[C@@H](CC(C)C)C(=O)N[C@@H](C)C(=O)N[C@@H](CCC(=O)O)C(=O)N[C@@H](CC(C)C)C(=O)N[C@@H](C)C(=O)N[C@H](C(=O)N[C@@H](CC(C)C)C(=O)N1CCC[C@H]1C(=O)N[C@@H](CCCNC(=N)N)C(=O)N[C@H](C(=O)N[C@@H](CCC(=O)O)C(=O)N[C@H](C(=O)NCC(=O)N1CCC[C@H]1C(=O)N[C@@H](CCC(=O)O)C(=O)N[C@@H](CO)C(=O)N1CCC[C@H]1C(N)=O)[C@@H](C)O)[C@@H](C)O)[C@@H](C)O
notes: also called Ex. #13
B6: [N-terminal(C18 diacid), 30S, 31G]mimylin (peptide)
peptide: {C18 diacid}-EASELSTAALGRLSAELHELATLPRTETGSGSP-NH2
notes: also called Ex. #21
B7: [N-terminal(C18 diacid), 17I]mimylin (peptide)
peptide: {C18 diacid}-EASELSTAALGRLSAEIHELATLPRTETGPESP-NH2
SMILES: CC[C@H](C)[C@H](NC(=O)[C@H](CCC(=O)O)NC(=O)[C@H](C)NC(=O)[C@H](CO)NC(=O)[C@H](CC(C)C)NC(=O)[C@H](CCCNC(=N)N)NC(=O)CNC(=O)[C@H](CC(C)C)NC(=O)[C@H](C)NC(=O)[C@H](C)NC(=O)[C@@H](NC(=O)[C@H](CO)NC(=O)[C@H](CC(C)C)NC(=O)[C@H](CCC(=O)O)NC(=O)[C@H](CO)NC(=O)[C@H](C)NC(=O)[C@H](CCC(=O)O)NC(=O)CCCCCCCCCCCCCCCCC(=O)O)[C@@H](C)O)C(=O)N[C@@H](Cc1c[nH]cn1)C(=O)N[C@@H](CCC(=O)O)C(=O)N[C@@H](CC(C)C)C(=O)N[C@@H](C)C(=O)N[C@H](C(=O)N[C@@H](CC(C)C)C(=O)N1CCC[C@H]1C(=O)N[C@@H](CCCNC(=N)N)C(=O)N[C@H](C(=O)N[C@@H](CCC(=O)O)C(=O)N[C@H](C(=O)NCC(=O)N1CCC[C@H]1C(=O)N[C@@H](CCC(=O)O)C(=O)N[C@@H](CO)C(=O)N1CCC[C@H]1C(N)=O)[C@@H](C)O)[C@@H](C)O)[C@@H](C)O
notes: also called Ex. #11

The assay has as its target T1, human calcitonin receptor. Kind of assay: whole-cell competition vs 125I-human calcitonin (Assay VIIa). As to the method:
The binding assay was performed using a BHK tk'ts 13 cell line was stably transfected with the human calcitonin receptor, and a CRE-responsive luciferase reporter gene.
The day before the assay the cells were Seeded into Poly-D-Lysin coated 384W Opaque White, BD BioCoat plates (10000 cells/well) and Incubated overnight at 37° C., 5% CO2, 95% humidity. […] The morning after, the plates were washed three times in HBSS (4° C.), and lyzed in Lysis buffer (0.1 M NaOH), 1% SDS. Scintillation cocktail (MicroScint40®) was added and the plates were shaken at 500 rpm for a short period. The plate was incubated at room temperature in the dark for 1 hour and Read on a TopCounter™ (Packard). The IC₅₀ was calculated using (one site binding competition analysis) GraphPad Prism5 as a measure of receptor affinity.
With B1, the IC50 (as a rule, the concentration that gives 50% inhibition) was 0.506 nM.

On to B2, for which the IC50 is 0.736 nM.

Take B3: the IC50 stood at 0.419 nM.

B4: the IC50 was 3.35 nM.

On to B5, for which the IC50 is 0.279 nM.

With B6, the IC50 is 0.315 nM.

Regarding B7, the IC50 was determined as 1.37 nM.
